In this data set the target is T1, TbrCan2 E341A E341A (Thermoanaerobacter brockii subsp. finnii Ako-1 DSM 1457) (UniProt E8URK0).
T1 sequence: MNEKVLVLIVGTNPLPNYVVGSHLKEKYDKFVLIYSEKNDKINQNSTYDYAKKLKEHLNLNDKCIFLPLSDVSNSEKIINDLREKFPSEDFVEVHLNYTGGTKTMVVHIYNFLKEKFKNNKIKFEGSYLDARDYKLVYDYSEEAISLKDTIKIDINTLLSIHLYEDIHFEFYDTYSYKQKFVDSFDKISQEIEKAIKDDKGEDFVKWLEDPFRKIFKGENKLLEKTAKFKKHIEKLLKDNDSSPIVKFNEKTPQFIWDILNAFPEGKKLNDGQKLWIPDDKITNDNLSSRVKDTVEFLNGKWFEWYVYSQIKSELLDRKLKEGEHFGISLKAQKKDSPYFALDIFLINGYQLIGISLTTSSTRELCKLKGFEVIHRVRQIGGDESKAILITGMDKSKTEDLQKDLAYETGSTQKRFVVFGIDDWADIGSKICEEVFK
Description: EMSA. Background: Mobility shift assays separate free from complexed probe on a gel.

ssRNA substrate: the dissociation constant (Kd) (commonly a measure of binding affinity in units of concentration) was 0.24 µM.

Source of the values: publication PMC10783487.
